T1: Bcl-w, Q92843
T1 chain: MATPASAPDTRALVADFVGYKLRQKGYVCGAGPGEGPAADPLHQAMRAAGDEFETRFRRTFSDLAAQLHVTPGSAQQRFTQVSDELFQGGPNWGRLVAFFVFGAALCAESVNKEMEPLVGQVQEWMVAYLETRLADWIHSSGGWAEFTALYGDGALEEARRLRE

T2: Bcl-2, P10415
T2 chain: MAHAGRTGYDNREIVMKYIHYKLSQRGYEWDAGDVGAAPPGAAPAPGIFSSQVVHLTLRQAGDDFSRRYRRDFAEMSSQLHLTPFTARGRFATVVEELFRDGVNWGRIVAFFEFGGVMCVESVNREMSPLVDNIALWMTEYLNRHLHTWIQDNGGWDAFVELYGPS

T3: Bfl-1, Q16548
T3 chain: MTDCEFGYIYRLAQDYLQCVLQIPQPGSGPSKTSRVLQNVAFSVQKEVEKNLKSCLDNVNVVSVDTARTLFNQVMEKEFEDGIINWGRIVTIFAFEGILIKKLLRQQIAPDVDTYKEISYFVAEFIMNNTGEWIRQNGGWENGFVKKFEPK

T4: Mcl-1, Q07820
T4 chain: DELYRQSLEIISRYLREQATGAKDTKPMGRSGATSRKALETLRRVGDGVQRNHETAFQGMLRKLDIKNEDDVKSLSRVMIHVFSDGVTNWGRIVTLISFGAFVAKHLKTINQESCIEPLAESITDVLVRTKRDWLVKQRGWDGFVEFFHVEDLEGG


Columns and labels:
[1] = biological target: Bcl-xL, Q07817; experiment: fluorescence polarisation, direct titration of receptor into 10 nM labelled peptide
[2] = biological target: T1, Bcl-w, Q92843; experiment: as above
[3] = biological target: T2, Bcl-2, P10415; experiment: as above
[4] = biological target: T3, Bfl-1, Q16548; experiment: as above
[5] = biological target: T4, Mcl-1, Q07820; experiment: as above
[6] = biological target: Bcl-xL, Q07817; experiment: peptide SPOT array, c-Myc-tagged receptor at 1 uM or 100 nM, anti-c-Myc-Cy3
[7] = biological target: T3, Bfl-1, Q16548; experiment: as above
[8] = biological target: T4, Mcl-1, Q07820; experiment: as above
[9] = biological target: T1, Bcl-w, Q92843; experiment: as above
[10] = biological target: Bcl-2, P10415; experiment: as above
Target sequence in this assay (P10415 1-217): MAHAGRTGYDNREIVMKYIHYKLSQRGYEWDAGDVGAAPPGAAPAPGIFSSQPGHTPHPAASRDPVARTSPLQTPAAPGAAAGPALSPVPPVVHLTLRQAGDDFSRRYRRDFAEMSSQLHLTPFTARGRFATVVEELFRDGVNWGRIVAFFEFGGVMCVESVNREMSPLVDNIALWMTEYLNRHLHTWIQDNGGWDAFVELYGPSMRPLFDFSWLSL

Chain of Bcl-xL, Q07817 (Q07817 1-209): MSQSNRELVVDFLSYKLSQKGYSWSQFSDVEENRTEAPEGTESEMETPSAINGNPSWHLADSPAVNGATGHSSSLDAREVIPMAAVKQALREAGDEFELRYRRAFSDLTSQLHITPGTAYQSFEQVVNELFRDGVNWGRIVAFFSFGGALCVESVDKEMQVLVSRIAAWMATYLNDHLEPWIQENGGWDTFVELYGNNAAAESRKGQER

| Binder | Kd [1] [nM] | Kd [2] [nM] | Kd [3] [nM] | Kd [4] [nM] | Kd [5] [nM] | SPOT signal as a fraction of Bim BH3's signal on the same receptor and array [6] | SPOT signal as a fraction of Bim BH3's signal on the same receptor and array [7] | SPOT signal as a fraction of Bim BH3's signal on the same receptor and array [8] | SPOT signal as a fraction of Bim BH3's signal on the same receptor and array [9] | SPOT signal as a fraction of Bim BH3's signal on the same receptor and array [10] |
| --- | --- | --- | --- | --- | --- | --- | --- | --- | --- | --- |
| ADAIRPRCVELRHLCDDFINGNKKKW [MCF2L2] | 292 | 1120 | 60 | > 3370 | > 4000 | 1.38 | 0.29 | 0.22 | – | – |
| FSKREKLVEILRNIGDERTMVFVETK [DDX4] | > 4000 | > 4350 | > 3040 | > 3370 | 142 | 0.14 | 0.1 | 0.35 | – | – |
| TRRSMVFARHLREVGDEFRSRHLNST [POFUT2] | 39 | 98 | 98 | > 2280 | > 10000 | 1.91 | 0.75 | 1.67 | – | – |
| ATKRETAATFLKKVAKEFGFQNNGFS [NPLOC4] | > 100000 | > 4500 | 2060 | > 4660 | > 4000 | 0.73 | 0.41 | 0.23 | 0.77 | 0.25 |
| ISSYMVLAPVFGYLGDRYNRKYLMCG [SPNS1] | 96 | 871 | 28 | 278 | 19 | 1.64 | 1.2 | 1.15 | – | – |
| ACGDSVLARMLRELGDSLRRPQLRLW [SLC19A1] | 1460 | – | 237 | 182 | 22 | 1.21 | 0.38 | 0.45 | – | – |
| TRELQELARKLQELADASENLLTENT [TXNDC11] | 1490 | 249 | 86 | > 10000 | 2380 | 0.04 | 0.01 | 0.01 | 0.27 | 0.01 |
| VDSIRPKCQELRHLCDQFSAEIARRR [MCF2L] | 4 | 7 | 6 | > 4100 | > 4000 | 1.26 | 0.21 | 0.24 | – | – |
| TVATRRLSGFLRTLADRLEGTKELLS [MINA] | 1010 | 1230 | 266 | 1130 | > 10000 | 0.91 | 0.32 | 0.36 | – | – |

Source: publication PMC4072508, “Genome-Wide Prediction and Validation of Peptides That Bind Human Prosurvival Bcl-2 Proteins” (PLoS Computational Biology, 2014)
